Each block holds one binder with its values, some of them ahead of it.
Key:
[1] = molecular target: T1, recombinant VEGFR-2 protein (water soluble extracellular site of human VEGFR-2 with Fc of human IgG1 … (human, UniProt P35968 20-764)); assay: competitive ELISA; synergibody titrated with 1 nM VEGFR-2 on coated VEGF 165
T1 construct: extracellular domain; Bought; not shown: Fc of human IgG1
Protocol: Competitive ELISA is performed using the peptides synthesized above in Section 6A in order to assess the molecular interaction of the binders. […] Then the plate is washed five times with PBS containing 0.1% Tween-20, and blocked at room temperature for two hours with PBS containing 5% BSA. For VEGF:VEGFR-2 neutralization ELISA, each of the peptides synthesized in Section 6A above are diluted to one-fourth each time from 100 nM with PBS containing 1 nM VEGFR-2 and 1% BSA, and adjusted to 6.1 pM. 100 μl of peptide/VEGFR-2 solution is added to each well and the plate is left to react at room temperature for two hours. Subsequently, it is washed five times with PBS containing 0.1% Tween-20, mouse anti-VEGFR-2 antibodies (R&D Systems) is diluted to about 1:3,000 with PBS containing 1% BSA, and left to react at room temperature for one hour. Then 100 μl of goat anti-mouse-IgG-HRP (Pierce) diluted to about 1:10,000 with PBS containing 1% BSA is added to each well of the plate, left to react at room temperature for one hour, and washed five times with PBS containing 0.1% Tween-20. Lastly, 100 μl of TMB substrate (SIGMA) is added to each well of the plate to induce color reaction. The reaction is stopped by adding 50 μl of 5N H₂SO₄ solution, and the OD₄₅₀ value is read on a plate reader (Molecular Devices). Through the foregoing, the IC₅₀ value for the VEGF:VEGFR-2 binding capacity is obtained.
The method in Example 2, Section 6B above is used, except that, in the present example, each fused protein synergibodies are diluted from 100 nM to one-fourth each time with PBS containing 1% BSA and 1nM VEGFR-2 and adjusted to 6.1 pM for VEGF:VEGF-2 neutralization ELISA.

[2] = molecular target: T2, recombinant hAng-2 (recombinant protein with His tag attached to human Ang-2; R&D Systems) (human, UniProt O15123 19-496); assay: competitive ELISA; synergibody titrated with 1 nM hAng-2 (His) on coated hTie2-Fc
T2 construct: also called angiopoietin-2; ANGPT2
T2 sequence (looked up): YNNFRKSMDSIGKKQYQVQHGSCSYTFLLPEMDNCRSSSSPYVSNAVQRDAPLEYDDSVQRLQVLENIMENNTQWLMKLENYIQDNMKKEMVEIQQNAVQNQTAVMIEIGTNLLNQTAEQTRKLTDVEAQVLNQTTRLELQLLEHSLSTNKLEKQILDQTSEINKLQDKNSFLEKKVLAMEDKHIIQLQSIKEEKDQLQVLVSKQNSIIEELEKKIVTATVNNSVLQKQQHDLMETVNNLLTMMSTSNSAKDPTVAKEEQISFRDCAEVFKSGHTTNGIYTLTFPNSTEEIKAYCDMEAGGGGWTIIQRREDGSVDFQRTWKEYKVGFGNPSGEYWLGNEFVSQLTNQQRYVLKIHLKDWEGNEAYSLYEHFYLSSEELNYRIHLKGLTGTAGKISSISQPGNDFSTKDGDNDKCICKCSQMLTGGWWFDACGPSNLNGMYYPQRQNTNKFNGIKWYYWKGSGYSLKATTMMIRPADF
Protocol: A competitive ELISA is performed to assess the molecular interaction of the binders. A 96-well MaxiSorp™ flat-bottom plate (Nunc) is coated with hTie2-Fc (R&D Systems), which is a fused protein including the water-soluble extracellular portion of human Tie-2 and Fc of human IgG₁ dissolved in DMEM culture solution containing 50 μg/ml bovine serum albumin (BSA). The concentration of hTie2-Fc used as a coating material is equivalent to 75% of its maximum binding concentration with 1 nM of recombinant hAng-2 (recombinant protein with His tag attached to human Ang-2; R&D Systems). Then the plate is washed five times with Phosphate Buffer Saline (PBS) containing 0.1% Tween-20 and blocked at room temperature for two hours with PBS containing 5% BSA. Each anti-Ang-2 antibodies are diluted from 100 nM by one-fourth each time with PBS containing 1% BSA and 1 nM hAng-2 and adjusted to 6.1 pM for Ang-2:Tie-2 neutralization ELISA. 100 μl of antibody/hAng-2 solutions are placed in each corresponding well and left to react at room temperature for two hours. Then the wells are washed five times with PBS containing 0.1% Tween-20, and the anti-His antibodies (GE Healthcare) are diluted to about 1:3,000 with PBS containing 1% BSA and left to react at room temperature for one hour. Afterwards, 100 μl of goat anti-mouse-IgG-HRP (Pierce) diluted with PBS containing 1% BSA to about 1:10,000 is added to each well of the plate, left to react at room temperature for one hour, and washed with PBS containing 0.1% Tween-20 five times. Lastly, 100 μl of TMB substrate (SIGMA) is added to each well of the plate to induce color reaction, and the reaction is stopped by adding 50 μl of 5N H₂SO₄ solution. The OD₄₅₀ value is read on a plate reader (Molecular Devices).
The method described in Example 1, Section 3 above is used, except that, in the present example, each fused protein synergibodies are diluted from 100 nM to one-fourth each time with PBS containing 1% BSA and 1 nM hAng-2 and adjusted to 6.1 pM for Ang-2:Tie-2 neutralization ELISA.

T1 sequence (P35968 20-764): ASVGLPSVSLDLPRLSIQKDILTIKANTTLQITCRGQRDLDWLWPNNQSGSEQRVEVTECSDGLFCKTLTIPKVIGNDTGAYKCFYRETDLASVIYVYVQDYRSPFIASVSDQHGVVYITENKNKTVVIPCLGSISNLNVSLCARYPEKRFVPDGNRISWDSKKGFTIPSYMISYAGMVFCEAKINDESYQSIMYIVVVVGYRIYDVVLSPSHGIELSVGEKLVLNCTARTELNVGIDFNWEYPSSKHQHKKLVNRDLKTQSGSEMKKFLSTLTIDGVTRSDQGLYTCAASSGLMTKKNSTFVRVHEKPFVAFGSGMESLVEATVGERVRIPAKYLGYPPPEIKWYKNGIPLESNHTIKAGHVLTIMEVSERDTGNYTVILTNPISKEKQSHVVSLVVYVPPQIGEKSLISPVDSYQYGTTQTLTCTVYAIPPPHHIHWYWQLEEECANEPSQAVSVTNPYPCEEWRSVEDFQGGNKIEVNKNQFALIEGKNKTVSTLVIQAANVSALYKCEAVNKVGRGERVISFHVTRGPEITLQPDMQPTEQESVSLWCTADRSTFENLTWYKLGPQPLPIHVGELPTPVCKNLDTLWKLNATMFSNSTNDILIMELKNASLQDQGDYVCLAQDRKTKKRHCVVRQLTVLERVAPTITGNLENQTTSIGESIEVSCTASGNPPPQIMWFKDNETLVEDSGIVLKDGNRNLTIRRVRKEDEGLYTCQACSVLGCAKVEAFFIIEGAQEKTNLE

B1: Syn-Ang-VEGFR-6 (other)
heavy (part 1 of 2): QVQLQQSGPELVKPGASVKMSCKASGYTFTDYVISWVKQRTGQGLEWIGEIYPGSGSTYYNEKFKGKASLTADKSSNTAYMQLSSLTSADSAVYFCVRSRGDYYAMDYWGQGTSVTVSS
heavy (part 2 of 2): TGSDDLCYTFPCMHY
light: DIQMTQSPSSLSASLGGKVTITCKASQDINNYITWYQHKPGKGPRLLIHYTSTLQPGIPSRFSGSGSGRDYSFSISNLEPEDIATYYCLQYDNLLTFGGGTKLEIK
notes: Chimeric (human IgG1) SAITAng-2-2 with the peptide at the C-terminus of the heavy chain; also called SAITAng-2-2 x DTN6VEGFR-2-1; not shown: human IgG1 heavy chain constant region with Fc region, from the vector; human light chain constant region, printed as 'constant region of human IgG1'
IC50 [1]: 1.56 nM
IC50 [2]: 1.91 nM

B3: Syn-Ang-VEGFR-9 (other)
heavy (part 1 of 2): B1 heavy (part 1 of 2)
heavy (part 2 of 2): TGSGRMCDGSGPPTNCWFT
light: B1 light
notes: Chimeric (human IgG1) SAITAng-2-2 with the peptide at the C-terminus of the heavy chain; also called SAITAng-2-2 x DTN10VEGFR-2-4; not shown: human IgG1 heavy chain constant region with Fc region, from the vector; human light chain constant region, printed as 'constant region of human IgG1'
IC50 [1]: 2.04 nM
IC50 [2]: 1.95 nM

B4: Syn-Ang-VEGFR-10 (other)
heavy (part 1 of 2): B1 heavy (part 1 of 2)
heavy (part 2 of 2): PGSQGYCHLNMRYQWICDSE
light: B1 light
notes: Chimeric (human IgG1) SAITAng-2-2 with the peptide at the C-terminus of the heavy chain; also called SAITAng-2-2 x DTN11VEGFR-2-5; not shown: human IgG1 heavy chain constant region with Fc region, from the vector; human light chain constant region, printed as 'constant region of human IgG1'
IC50 [1]: 2.16 nM
IC50 [2]: 2 nM

Other lines, results leading:

IC50 [1]: 1.48 nM
IC50 [2]: 2.22 nM
B2: Syn-Ang-VEGFR-8 (other)
heavy (part 1 of 2): B1 heavy (part 1 of 2)
heavy (part 2 of 2): EAGAYWCKAWGLSPCLVT
light: B1 light
notes: Chimeric (human IgG1) SAITAng-2-2 with the peptide at the C-terminus of the heavy chain; also called SAITAng-2-2 x DTN9VEGFR-2-3; not shown: human IgG1 heavy chain constant region with Fc region, from the vector; human light chain constant region, printed as 'constant region of human IgG1'

IC50 [1]: 1.76 nM
IC50 [2]: 2.01 nM
B5: Syn-Ang-VEGFR-7 (other)
heavy (part 1 of 2): B1 heavy (part 1 of 2)
heavy (part 2 of 2): EAGKETCGYEWQYCPRP
light: B1 light
notes: Chimeric (human IgG1) SAITAng-2-2 with the peptide at the C-terminus of the heavy chain; also called SAITAng-2-2 x DTN8VEGFR-2-2; not shown: human IgG1 heavy chain constant region with Fc region, from the vector; human light chain constant region, printed as 'constant region of human IgG1'

IC50 [1]: 0.872 nM
IC50 [2]: 0.858 nM
B6: Syn-Ang-VEGFR-11 (other)
heavy (part 1 of 2): DVQLVESGGGLVQPGGSRKLSCAASGFTFSSFGMHWVRQAPEKGLEWVAYISSDSSTIYYADTVKGRFTISRDNPKNTLFLQMTSLRSEDTAMYYCAREGGYDDYYAMDYWGQGTSVTVSS
heavy (part 2 of 2): TGSDDLCYTFPCMHY
light: DIQMTQSPASQSASLGESVTITCLASQTIGTWLAWYQQKPGKSPQLLIYAATSLADGVPSRFSGSGSGTKFSFKISSLQAEDFVSYYCQQLYSIPLTFGGGTKLEIK
notes: Chimeric (human IgG1) SAITAng-2-3 with the peptide at the C-terminus of the heavy chain; also called SAITAng-2-3 x DTN6VEGFR-2-1; not shown: human IgG1 heavy chain constant region with Fc region, from the vector; human light chain constant region, printed as 'constant region of human IgG1'

IC50 [1]: 0.854 nM
IC50 [2]: 0.833 nM
B7: Syn-Ang-VEGFR-12 (other)
heavy (part 1 of 2): B6 heavy (part 1 of 2)
heavy (part 2 of 2): EAGKETCGYEWQYCPRP
light: B6 light
notes: Chimeric (human IgG1) SAITAng-2-3 with the peptide at the C-terminus of the heavy chain; also called SAITAng-2-3 x DTN8VEGFR-2-2; not shown: human IgG1 heavy chain constant region with Fc region, from the vector; human light chain constant region, printed as 'constant region of human IgG1'

Source: US20110076723A1, “ANTIBODY-PEPTIDE FUSED SYNERGIBODY” (SAMSUNG ELECTRONICS CO., LTD., priority 2008, published 2011)
